Biological target: biotinylated L-form of SARS-CoV-2 HR1 (SARS-CoV-2)

Work on SLDQINVTFLDLEYEMKKLEEAIKKLEESYIDLKEL (modifications not checked) [L-form of EK1] yielded a Kd of 23 nM.
